According to paper PMC5823934, “EGF receptor kinase suppresses ciliogenesis through activation of USP8 deubiquitinase” (Nature Communications, 2018):

Molecular target: T1, GST-USP8 (human, UniProt P40818 1-1118)
T1 construct: USP8 deubiquitinase, human cDNA FLJ76940 from the Human Gene and Protein Database, inserted in frame to GST in pGEX-6P-3 (BamHI/XhoI); Wild type; also called bacterially purified GST-USP8; source: E. coli BL21 (DE3), purified (glutathione-sepharose 4B)
T1 sequence (looked up): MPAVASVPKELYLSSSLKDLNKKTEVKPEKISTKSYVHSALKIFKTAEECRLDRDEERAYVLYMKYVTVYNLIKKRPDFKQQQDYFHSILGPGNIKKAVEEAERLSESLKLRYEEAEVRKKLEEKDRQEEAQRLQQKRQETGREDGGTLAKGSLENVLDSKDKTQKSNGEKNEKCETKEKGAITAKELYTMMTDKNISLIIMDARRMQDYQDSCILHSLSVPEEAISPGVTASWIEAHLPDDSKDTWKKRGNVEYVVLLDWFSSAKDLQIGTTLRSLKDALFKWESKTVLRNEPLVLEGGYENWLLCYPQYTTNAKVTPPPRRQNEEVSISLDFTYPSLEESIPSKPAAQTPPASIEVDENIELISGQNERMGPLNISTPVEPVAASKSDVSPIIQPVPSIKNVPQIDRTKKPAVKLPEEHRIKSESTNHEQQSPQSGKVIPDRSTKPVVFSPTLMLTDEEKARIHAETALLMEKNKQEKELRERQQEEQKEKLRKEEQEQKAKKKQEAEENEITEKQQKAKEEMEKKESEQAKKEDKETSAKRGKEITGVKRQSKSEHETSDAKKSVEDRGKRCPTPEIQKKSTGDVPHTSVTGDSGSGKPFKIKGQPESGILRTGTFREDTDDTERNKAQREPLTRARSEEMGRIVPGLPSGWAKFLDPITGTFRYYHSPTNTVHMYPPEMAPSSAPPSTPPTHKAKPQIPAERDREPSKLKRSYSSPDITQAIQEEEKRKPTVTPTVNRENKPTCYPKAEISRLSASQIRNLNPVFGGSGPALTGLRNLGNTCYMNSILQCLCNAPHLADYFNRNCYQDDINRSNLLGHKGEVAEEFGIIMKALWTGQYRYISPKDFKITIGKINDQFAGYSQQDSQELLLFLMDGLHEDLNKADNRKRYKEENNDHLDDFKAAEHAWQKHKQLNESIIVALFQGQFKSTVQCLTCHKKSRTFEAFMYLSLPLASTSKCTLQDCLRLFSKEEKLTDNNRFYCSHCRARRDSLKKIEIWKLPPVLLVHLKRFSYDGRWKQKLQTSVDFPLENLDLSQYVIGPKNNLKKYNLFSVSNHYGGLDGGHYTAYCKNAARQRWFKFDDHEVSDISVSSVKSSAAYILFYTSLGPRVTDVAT
Assay: pull-down; MBP-trichoplein (1 ug) and GST-USP8 (1 ug) in cell lysis buffer (20 mM Tris-HCl pH 7.5, 150 mM NaCl, 2 mM beta-glycerophosphate, 2 mM EGTA, 1% Triton X-100), 2 h at 4 °C; glutathione-sepharose 4B; immunoblot
Conditions: both partners purified

B1: MBP-trichoplein (natural protein, human, UniProt Q9BT92 1-498, looked up)
chain: MALPTLPSYWCSQQRLNQQLARQREQEARLRQQWEQNSRYFRMSDICSSKQAEWSSKTSYQRSMHAYQREKMKEEKRRSLEARREKLRQLMQEEQDLLARELEELRLSMNLQERRIREQHGKLKSAKEEQRKLIAEQLLYEHWKKNNPKLREMELDLHQKHVVNSWEMQKEEKKQQEATAEQENKRYENEYERARREALERMKAEEERRQLEDKLQAEALLQQMEELKLKEVEATKLKKEQENLLKQRWELERLEEERKQMEAFRQKAELGRFLRHQYNAQLSRRTQQIQEELEADRRILQALLEKEDESQRLHLARREQVMADVAWMKQAIEEQLQLERAREAELQMLLREEAKEMWEKREAEWARERSARDRLMSEVLTGRQQQIQEKIEQNRRAQEESLKHREQLIRNLEEVRELARREKEESEKLKSARKQELEAQVAERRLQAWEADQQEEEEEEEARRVEQLSDALLQQEAETMAEQGYRPKPYGHPKIAWN
notes: also called recombinant MBP-trichoplein; source: E. coli BL21 CodonPlus RP, purified (amylose resin)
B1: binds.
